Data from publication PMC6811742, “No interactions between heparin and atacicept, an antagonist of B cell survival cytokines” (British Journal of Pharmacology, 2019).

B1: Atacicept (TACI (30–110)‐Fc) (Fc fusion, human, UniProt O14836 30-110, looked up)
chain: AMRSCPEEQYWDPLLGTCMSCKTICNHQSQRTCAAFCRSLSCRKEQGKFYDHLLRDCISCASICGQHPKQCAYFCENKLRS
notes: also called TACI‐Fc; dimeric atacicept; source: provided by Merck (Darmstadt, Germany); also in sera of human subjects after 150 mg subcutaneously

Legend:
Flag‐mBAFF = molecular target: T1, Flag‐mBAFF (mouse, UniProt Q9WU72 127-309); assay: AlphaScreen or HTRF; AlphaLISA of atacicept diluted in mouse plasma with a matched pair of anti‐TACI antibodies (biotinylated ATA2, ATA3 acceptor beads), with or without recombinant mouse BAFF, with or without acid dissociation; conversely AlphaLISA of mouse BAFF in Baff−/− serum with 0, 100 or 2000 ng/ml atacicept; conditions: both partners purified
T1 construct: linker after the Flag tag; mouse BAFF, residues 127-309; that it is Flag‐mBAFF (ps657) is surmised; Encoded with an HA signal before the Flag tag; also called recombinant mouse BAFF; mouse BAFF

[1] = molecular target: B1; assay: ELISA; plates coated with atacicept at 1 μg/ml in PBS, blocked, incubated with the indicated concentrations of Flag‐APRIL; revealed with anti‐Flag reagents; conditions: both partners purified

T1 sequence (Q9WU72 other isoform, or with tags, fused parts or gaps): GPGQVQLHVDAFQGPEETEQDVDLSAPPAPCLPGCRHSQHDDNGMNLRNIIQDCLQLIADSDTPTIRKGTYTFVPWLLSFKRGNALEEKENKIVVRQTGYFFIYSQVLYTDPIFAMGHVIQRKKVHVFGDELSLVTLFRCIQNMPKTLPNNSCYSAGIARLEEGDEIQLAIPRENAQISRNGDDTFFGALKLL

binding result (Flag‐mBAFF) | binding result [1] | Binder
binds |  | B1
 | binds | Flag‐ACRP‐hAPRIL (ligand, linker after the Flag tag; human ACRP30 (adiponectin), residues 16-108; linker; human APRIL, residues 105-250, starting at alanine 105 just after the furin cleavage site; also called Flag‐APRIL; ps1088; source: HEK293 cells, purified on anti‐Flag agarose) not shown
